Test results: US20240360227A1
Numbering of substitutions follows the chain as printed.

B1: VRDN-02076 (antibody, V domains shown)
VH: QVQLQESGPGLVKPSETLSLTCTVSGYSITGGYLWNWIRQPPGKGLEWIGYISYHGTNNYKPSLKDRVTISRDTSKNQFSLKLSSVTAADTAVYYCARHGRVFFDYWGQGTLVTVSS
VL: DIVMTQSPLSLPVTPGEPASISCRSHQSIVHSNGNTYLQWYLQKPGQSPQLLIYKVSNRLYGVPDRFSGSGSGTDFTLKISRVEAEDVGVYYCFQGSHVPHTFGQGTKVEIK
B2: VRDN-02009 (antibody, V domains shown)
VH: B1 VH with L34H, H55D, H99Y
VL: B1 VL with H26S, H101W
B3: VRDN-02010 (antibody, V domains shown)
VH: B1 VH with W35H, H55D, H99Y
VL: B1 VL with H26S, H101W
B4: VRDN-02008 (antibody, V domains shown)
VH: B1 VH with Y33H, H55D, H99Y
VL: B1 VL with H26S, H101W
B5: VRDN-02013 (antibody, V domains shown)
VH: B1 VH with I52H, H55D, H99Y
VL: B1 VL with H26S, H101W
B6: VRDN-02014 (antibody, V domains shown)
VH: B1 VH with S53H, H55D, H99Y
VL: B1 VL with H26S, H101W
B7: VRDN-02015 (antibody, V domains shown)
VH: B1 VH with Y54H, H55D, H99Y
VL: B1 VL with H26S, H101W
B8: VRDN-02012 (antibody, V domains shown)
VH: B1 VH with Y51H, H55D, H99Y
VL: B1 VL with H26S, H101W
B9: VRDN-02011 (antibody, V domains shown)
VH: B1 VH with N36H, H55D, H99Y
VL: B1 VL with H26S, H101W

biological target: Recombinant human his-tagged IGF R extracellular domain protein (human) (UniProt P08069); test: SPR, Ab captured via anti-huIgG Fc, pH 7.4

Kd [nM]	koff [s⁻¹]	kon [M⁻¹ s⁻¹]	Binder
0.21	2.46e-05	117000	B1
0.442	3.98e-05	90000	B2
6.95	0.00311	447000	B3
16.6	0.0206	1.24e+06	B4
0.674	5.45e-05	80800	B5
0.697	6.19e-05	88700	B6
0.51	4.57e-05	89500	B7
0.589	5.41e-05	91800	B8
0.432	4.55e-05	105000	B9

biological target: Recombinant human his-tagged IGF R extracellular domain protein (human) (UniProt P08069); test: SPR, Ab captured via anti-huIgG Fc, dissociation at pH 6

Kd [nM]	koff [s⁻¹]	kon [M⁻¹ s⁻¹]	Binder
0.178	6.76e-05	381000	B1
0.967	8.4e-05	86900	B2
7.61	0.00074	97200	B3
13.1	0.00143	109000	B4
1.17	0.000109	93200	B5
1.11	0.000153	138000	B6
0.961	8.79e-05	91400	B7
1.01	0.000103	102000	B8
0.836	7.81e-05	93400	B9
